Measured values taken from patent US20080056998A1, “COMPOSITION AND PROCESSES FOR CROSSING THE BLOOD-BRAIN BARRIER WITH POLYPEPTIDES FOR IN VIVO NEUROIMAGING” (The General Hospital Corporation, priority 2006, published 2008).

Columns and labels:
[1] = system: neurons, astrocytes, and endothelial cells; assay: dual-channel fluorescence microscopy of stained brain sections; assay type: in vivo, mouse
Description: When the exemplary MPAP-Cy5.5 delivery module penetrates the BBB, exemplary dual-channel fluorescence microscopy can be used to observe whether the distribution of the exemplary MPAP-Cy5.5 delivery module in the exemplary brain forms in a cell-type-specific manner. In a further exemplary embodiment of the present invention, an exemplary distribution of the exemplary MPAP-Cy5.5 delivery module within different cell types of a brain can be determined with dual-channel fluorescence microscopy. For example, cryopreserved serial brain sections from mice perfused with the MPAP-Cy5.5 delivery module can be stained for neurons, astrocytes, and endothelial cells using anti-neuronal nuclei antibody (such as, for example, NeuN, monoclonal, from Chemicon International, Temecula, Calif.), anti-glial fibrillary acidic protein antibody (such as, for example, GFAP from Chemicon International, Temecula, Calif.), and anti-CD31 (such as, for example PECAM-1 from BD Biosciences Pharmingen, San Jose, Calif.). The brain sections may be further incubated with corresponding FITC-conjugated secondary antibodies. Further, slides of the brain sections can be mounted in a mounting medium, such as, for example, a Vectashield mounting medium from Vector Laboratories in Burlingame, Calif. Dual-channel fluorescence microscopy in, for example, the Cy5.5 and FITC channels can be performed using, for example, a Nikon Eclipse 50i fluorescence microscope equipped with an appropriate filter set, such as, for example, one provided by Chroma Technology Corporation in Rockingham, Vt. Exemplary images can be acquired using a CCD camera with near-infrared sensitivity (such as, for example, a SPOT 7.4 Slider RTKE from Diagnostic Instruments in Sterling Heights, Mich.).
Although a mechanism for neuronal accumulation remains unclear, it may be possible that preferential targeting into neurons can be related to the higher lypophilicity of neuronal membranes as compared to other cell types. (See, e.g., publications 4 and 6.) Lypophilic peptides may have an advantage to penetrate by adsorptive endocytosis. […] However, some signal may be detectable in the thalamus 904 and the CA3 area of the hippocampus 905.

[2] = HPLC study of perfused brain homogenate; assay type: in vivo, mouse; details: brain perfused 24 hours after intravenous injection
Procedure: In a further exemplary embodiment of the present invention, the mouse brains can be perfused for 24 hours after injection of the delivery module in order to remove intravascular contents. The brain homogenates can then be subjected to exemplary High-Powered Liquid Chromatography (“HPLC”) analysis.
According to an exemplary embodiment of the present invention, n mice (n=4 for example) can be injected intravenously with the delivery module. The mouse brain uptake of the compound can be detected by HPLC after in situ brain perfusion. A perfused brain can be soaked in a HPLC mobile phase solution for 15 minutes and homogenized on ice using a mechanical homogenizer, such as that which is marketed by Virtis in Gardiner, N.Y. A resulting brain residue can be filtered using, for example, 0.45 Am Whatman Nylon filters, lyophilized, and analyzed by 2D-HPLC, such as that whish is marketed by Lachrome Elite, Hitachi in San Jose, Calif. […] In addition, the detected peak can be correlated and matched with the absorbance spectrum profile of Cy5.5 dye. […] Furthermore, the absorbance profile of this peak can correspond to the absorbance profile of Cy5.5 dye at approximately 670 nm 702.
Upon switching the detection wavelength to 220 nm, the retention time peak at 32 min can be detected along with other more polar peaks, such as those associated with brain metabolites.

mouse brain [3] = assay: in vivo NIR fluorescence imaging after intravenous injection; details: mice; for crossing of the BBB / accumulation in the brain: MPAP-Cy5.5 at about 24 hours post-injection, Cy5.5 at any point in time; for NIR fluorescent signal in the brain in vivo: imaging 15 min to 44 hours
Procedure: In the exemplary embodiment of the present invention, for in vivo optical imaging, n mice can be injected intravenously with about 2.5 nmol of the exemplary delivery module MPAP-Cy5.5, Cy5.5 alone, or saline solution. In an exemplary embodiment of the present invention, n=4 for each group of solutions for a total of 12 mice. Imaging can be performed at various times after injection. For example, it may be performed about 15 and 30 minutes after injection, as well as 1, 2, 3, 6, 24 and 44 hours after injection. For exemplary NIR fluorescent imaging, the mice can be placed into an imaging system, for example a Kodak Imaging Station IS2000MM, equipped with a band-pass filter at about 630 nm and a long pass filter at about 700 nm, such as the Chroma Technology Corporation. Exemplary images can be captured with e.g., charge-coupled device (“CCD”) camera embedded in the imaging system and exemplary analyses may be performed using Kodak ID3.6.3 imaging software.
Initially, after an exemplary intravenous injection of the delivery module into an mammal, such as a mouse, there may be no defined fluorescent signal in the brain for a few hours. […] An increase in the emitted light can occur 24 hours after injection 202, and the signal can continue to accumulate up to approximately 2 days or more 203.

brain endothelium = assay: dual-channel confocal microscopy of brain endothelium; assay type: in vivo; details: intravenous, about 2.5 nmol; sacrificed 1, 3 or 6 hours after injection
Procedure: Further, fluorescence confocal microscopy techniques/systems can be employed to investigate a delivery route of the delivery module after injection. For example, mammals can be injected intravenously with about 2.5 nmol of the exemplary delivery module MPAPCy5.5, perfused, and sacrificed 1, 3 or 6 hours after injection. Brain sections from the sacrificed animals may be frozen. The frozen brain sections can then be stained with, for example, anti-CD31 antibodies followed by FITC-conjugated secondary antibody as described above. Dual-channel confocal microscopy can be performed, for example, in the FITC and Cy5.5 channels. Further, confocal microscopy can be performed using, for example, an Axiovert 200 M inverted microscope (from, e.g., Carl Zeiss, Inc. Thornwood, N.Y.), equipped with an LSM Pascal Vario RGB Laser Module (Arg 458/488/514 nm, HeNe 543 nm, HeNe 633 nm). An exemplary confocal images with a slice thickness of, for example, <0.9 Am can be acquired to produce, for example, FITC and Cy5.5 staining as well as Nomarski optics. Exemplary summation projection of all background-corrected confocal slices can be produced using, for example, LSM 5 Pascal Software. Further, the exemplary confocal images can be color-coded with, for example, green for FITC and red for Cy5.5. […]

mouse brain [4] = assay: ex vivo NIR fluorescence imaging of removed brains and coronal brain slices; assay type: in vivo; details: for ex vivo NIR fluorescent signal of removed brain: 24 hours after injection
Procedure: In another exemplary embodiment of the present invention, fluorescence signals may be observed using exemplary ex vivo imaging performed on the exemplary mouse brains post injection of the exemplary delivery module. Exemplary Ex vivo NIR fluorescence imaging can be performed, e.g., 24 hours after the injection of the exemplary MPAP-Cy5.5 delivery module. Upon sacrificing the mice, each mouse brain can be removed, placed into the exemplary imaging system, and imaged as described above.
Additional observations regarding accumulation of the exemplary delivery module in the brain can be obtained after imaging 1 mm-thick coronal brain slices from the exemplary mouse brain. The exemplary mouse brain can be cut into 1 mm coronal brain sections using a slicing apparatus, such as the RBM-2000C provided by Analytical Scientific Instruments, taken at the following exemplary anteroposterior coordinates from bregma, e.g.: +1.1 mm, +0.1 mm, −0.9 mm, −1.9 mm. Referring to FIG. 6, the exemplary brain slices can then be placed into the exemplary imaging system and imaged 600 as described above.

Row | Substance | accumulation in astrocytes ([1]; GFAP staining) | accumulation in neurons ([1]; NeuN staining) | localization in endothelial cells ([1]; anti-CD31 staining) | distribution over brain regions ([1]; cortex, hippocampus, thalamus) | subcellular localization in neurons ([1]; mouse, in vivo) | degradation in systemic circulation (intact compound in brain homogenate by HPLC) [2] | crossing of the BBB / accumulation in the brain (mouse brain [3]) | time post-injection at which NIR fluorescent signal is detected in the brain (head summit) (mouse brain [3]; about 2.5 nmol) [h] | time up to which the brain signal continues to accumulate (mouse brain [3]; about 2.5 nmol) [days] | NIR fluorescent signal in the brain in vivo (mouse brain [3]; about 2.5 nmol) | accumulation in peripheral tissues / mouse body (mouse brain [3]; kidneys and spleen) | time after injection to pass through the endothelium (brain endothelium) [h] | ex vivo NIR fluorescent signal of removed brain (mouse brain [4]) | distribution in 1 mm coronal brain slices (mouse brain [4]; slices at +1.1, +0.1, −0.9, −1.9 mm from bregma)
1 | C14-βAla-(Arg)7-Cys(Cy5.5)-NH2 [MPAP-Cy5.5] | may not show widespread accumulation | primarily accumulate in neurons | no significant localization | detected in almost all regions of the brain | predominantly localized within the cell cytoplasm | may likely not degrade in systemic circulation | crossed the BBB and accumulate within the mouse brain | 6 | ≥ 2 | progressively increasing NIR fluorescent signal | accumulation of the delivery module in peripheral tissues | ≤ 1 | strong NIR fluorescent signal | distributed randomly throughout the brain parenchyma
2 | Cy5.5 [reference compound] | – | – | – | – | – | – | no accumulation in the brain | – | – | no signal appears | – | – | no significant signal beyond background levels | –
